Measurements reported in patent US20100095387A1, “METHODS AND REAGENTS FOR SCREENING NEW DRUGS AND FOR TREATING ION PUMP ASSOCIATED DISORDERS AND DISEASES” (priority 2005, published 2010).
“Also recorded” adds a separate entry of the source.

Tested on: cultured cortical neurons
Test: Glutamate excitotoxic injury of cultured cortical neurons, LDH in growth medium
Format: cell-based
Details: 10 minutes glutamate with C-Ag15; preliminary data
Protocol: FIG. 15. C-Ag15 is neuroprotective for excitotoxic injury. Cultured cortical eurons were treated for 10 minutes with the excitatory neurotransmitter glutamate in the presence of the indicated concentration of C-Ag15 and degree of neuronal injury assessed by monitoring the level of LDH in the growth medium. Data are expressed as a percentage of the LDH in sister cultures treated with glutamate alone. The neuroprotective effect of C-Ag15 is dose-dependent.

B1: C-Ag15: 15-kD COOH-terminal fragment of agrin created by deleting 37 amino acids from the NH2 terminus of C-Ag20, SEQ. ID NO. 3 (protein)
chain: MDPWIGKAAERADYMALAIVDGHLQLSYDLASQPVVLRSTVKVNTNRWLRVRAHREHREGSLQVGNEAPVTSSSPLGATQLDTDGALWLGGLQKLPVGQPLPKAYGTGFVGCLRNVVGHRQLHLLEDAVTKPELRPCPTLNSKLGPEQKLISEEDLNSAVDHHHHHH
modifications: Synthetically produced sequence
In the case of B1, the “neuronal injury, LDH in growth medium” value is reported as “neuroprotective; also recorded: dose-dependent”.
